Reference: patent US20120213761A1 (MEDIZINISCHE UNIVERSITAET WIEN, published 2012)

Target: T1, tumor necrosis factor receptor-associated factor 2 (TRAF2), endogenous, in human cardiac tissue (human, UniProt Q12933 2-501)
T1 construct: Immunoprecipitated from human cardiac tissue or tissue culture lysates with a TRAF2 antibody (BD Pharmingen)
T1 sequence (looked up): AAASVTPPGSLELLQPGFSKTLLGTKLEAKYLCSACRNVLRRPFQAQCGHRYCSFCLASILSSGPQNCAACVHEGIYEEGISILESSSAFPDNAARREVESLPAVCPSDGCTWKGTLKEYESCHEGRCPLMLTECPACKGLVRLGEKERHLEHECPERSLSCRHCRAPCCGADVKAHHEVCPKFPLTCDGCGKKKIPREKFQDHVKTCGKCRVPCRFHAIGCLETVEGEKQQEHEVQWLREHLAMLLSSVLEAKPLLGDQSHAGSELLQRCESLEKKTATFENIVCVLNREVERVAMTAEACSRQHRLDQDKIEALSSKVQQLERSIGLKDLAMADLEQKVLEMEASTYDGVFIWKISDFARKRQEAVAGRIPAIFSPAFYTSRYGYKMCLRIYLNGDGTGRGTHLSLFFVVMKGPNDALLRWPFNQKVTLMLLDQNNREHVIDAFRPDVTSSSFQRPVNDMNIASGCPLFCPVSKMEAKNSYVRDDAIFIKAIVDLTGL
Test: co-IP of LV myocardial lysates, Western blot (FIG. 2A)
Method: Human cardiac tissue was lysed in the lysis buffer containing 20 mM Tris (pH 7.5), 135 mM NaCl, 2 mM ethylenediaminetetraacetic acid (EDTA), 2 mM dithiothreitol (DTT), 25 mM β-glycerophosphate, 2 mM sodium pyrophosphate, 10% glycerol, 1% Triton X-100, 1 mM sodium orthovanadate, 10 mM NaF and 1 mM phenylmethylsulfonyl fluoride (PMSF) supplemented with complete protease inhibitor cocktail (Roche Applied Science, Indianapolis, Ind., USA) at 4 C as described (Aharinejad et al., 2005). Lysates were centrifuged (15 000 g) at 4 C for 15 min. For identify GSTP1-TRAF2 complexes formation proteins (500 μg) were immunoprecipitated with TRAF2 antibody (0.5 μg, BD Pharmingen, San Diego, Calif.). […]
Protein lysates (50 μg/lane) were separated by SDS-PAGE (10%) prior to electrophoretic transfer onto a Nitrocellulose membrane (Bio-Rad, Hercules, Calif.) as described (Aharinejad et al., 2005). […] Protein loading was assessed by Ponceau S staining and immunodetection was performed by chemiluminescence (Supersignal-West-Pico, Pierce, Rockford, Bands were quantified by ImageQuant software and specific protein signals were normalized to loading controls and expressed as arbitrary units. The average value of three measurements in each sample was used for data analysis.

B1: Glutathione S-transferase P1 (GSTP1), endogenous, in human left ventricular myocardial lysates (enzyme)
chain: PPYTVVYFPVRGRCAALRMLLADQGQSWKEEVVTVETWQEGSLKASCLYGQLPKFQDGDLTLYQSNTILRHLGRTLGLYGKDQQEAALVDMVNDGVEDLRCKYISLIYTNYEAGKDDYVKALPGQLKPFETLLSQNQGGKTFIVGDQISFADYNLLDLLLIHEVLAPGCLDAFPLLSAYVGRLSARPKLKAFLASPEYVNLPINGNGKQ
notes: also called GST-pi; GSTP1-1
B1: binds.
